Residue numbers refer to the chain shown, from its start. One block for each binder: values may come before it.
Columns and labels:
human IL-6 = human IL-6 (human, UniProt P05231 30-212, limits assumed); test: ELISA, human IL-6 coated at 1 µg/mL, HRP goat anti-mouse Fab, A450
Procedure: (§1) After washed four times with PBST, HRP-labeled goat anti-mouse Fab secondary antibodies were added and incubated at room temperature for 1 h. After washed four times with PBST, TMB colored solution was added and color developing for 10 min at room temperature. The absorption value at 450 nm was read by the enzyme maker. The data were analyzed and plotted using Origin pro 9 software.

human CNTF = target: T1, human CNTF (human, UniProt P26441 1-200, limits assumed); test: ELISA, human CNTF coated at 1 µg/mL, HRP goat anti-mouse Fab, A450
T1 sequence (looked up): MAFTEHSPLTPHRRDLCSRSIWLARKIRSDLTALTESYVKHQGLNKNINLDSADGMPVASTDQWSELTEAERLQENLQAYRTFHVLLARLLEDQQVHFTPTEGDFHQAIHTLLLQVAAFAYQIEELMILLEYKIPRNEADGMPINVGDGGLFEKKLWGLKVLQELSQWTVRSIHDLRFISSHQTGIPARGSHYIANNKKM
Procedure: as §1

human LIF protein [1] = target: T2, human LIF protein (human, UniProt P15018 23-202); test: competition ELISA, LIF coated, competitor LIFR-Fc 0.6125 ug/mL detected with anti-human Fc
T2 construct: Bought recombinant protein (Sino Biological / Yiqiao Shenzhou 14890-HNAH) in most assays; also called recombinant human LIF protein; rhLIF

human OSM = target: T3, human OSM (human, UniProt P13725 26-221, limits assumed); test: ELISA, human OSM coated at 1 µg/mL, HRP goat anti-mouse Fab, A450
T3 sequence (looked up): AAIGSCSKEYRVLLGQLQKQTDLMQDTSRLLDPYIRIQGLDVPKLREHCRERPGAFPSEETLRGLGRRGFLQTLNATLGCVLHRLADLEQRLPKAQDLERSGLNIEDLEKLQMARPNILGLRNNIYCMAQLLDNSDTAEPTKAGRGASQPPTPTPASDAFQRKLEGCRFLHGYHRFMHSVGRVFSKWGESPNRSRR
Procedure: as §1

human LIF protein [2] = target: T2, human LIF protein; test: cell-based or functional assay
human LIF protein [3] = target: T2, human LIF protein; test: ELISA, antigen coated 0.5 ug/ml, 293S supernatant heated 70 C 5 min, antibody 1 ug/mL
Procedure: (§2) Each well was coated with 100 μL of 0.5 μg/ml antigen and incubate overnight at 4° C., and the plates were washed three times with 300 μL of Wash Buffer. The plates were closed with 200 μL of Closure Buffer (2% bovine serum albumin) for 60 min at room temperature. The plates were washed three times with 300 μL of Wash Buffer. 100 μL of diluted anti-LIF antibody at different concentrations was added to each well and incubate for 1 hour at room temperature. The plates were washed 4 times with 300 μL of Wash Buffer. 100 μL of HRP-labeled goat anti-human Fc secondary antibody at a dilution of 1:5000 was added and incubate for 1 hour at room temperature. The plates were washed 6 times with 300 μL of Wash Buffer. 100 μL of H₂O₂-Amplx Color Development Solution was added for developing the color for 10 min at room temperature under dark conditions. The OD 450 value was read by an enzyme marker. Heat treatment: the expression medium was heated on the PCR machine at 70° C. for 5 min and then rapidly cooled to room temperature. Perform subsequent ELISA assays as above.

human LIF protein [4] = target: T2, human LIF protein; test: ELISA, antigen coated 0.5 ug/ml, 293S supernatant non-heated, antibody 0.04 ug/mL
Procedure: as §2

[5] = target: T4, Mut4 heterozygous LIF protein (human LIF with residues 166-202 of …, UniProt P15018 23-201, limits assumed); test: western blot of 293T culture supernatants, primary antibody 1 µg/mL, HRP anti-human Fc
T4 construct: Secreted into the supernatant of transfected 293T cells; also called Mut4 protein
Procedure: (§3) The supernatant of 293T cells transfected with human LIF full-length gene sequence, Mut3 and Mut4 protein sequences after 3 days of culture, and the negative control of 293T cell culture supernatant were taken, 5×SDS-PAGE loading buffer was added, and boiled for 10 minutes. Then 10 μL of sample was taken for SDS-PAGE electrophoresis, and then the electrophoretic bands were transferred to PVDF membrane for western blot detection. The primary antibody for detection was 38E huH3L2 or 38E huH3L4 antibody at a concentration of 1 μg/mL, and was incubated for 2 hours at room temperature. Then washed three times in PBST buffer and diluted HRP-labeled sheep anti-human Fc secondary antibody at a dilution ration of 1:3000 was added, incubated with the secondary antibody for 2 hours at room temperature, washed three times in PBST buffer and enhanced Chemiluminescent solution (Perice, item no. 34079) was added and incubated. An Amersham Imager 600 ultra-sensitive multifunctional imager was used for detection and photograph. […] The same results were obtained in the M1 cell proliferation assay, and the results were detailed in subfigure B in FIG. 22. Therefore, the epitope sequences recognized by the 38E huH3L2 and 38E huH3L4 antibodies were determined to be […] (SEQ ID NO: 61).

[6] = target: T5, Mut3 heterozygous LIF protein (human LIF with residues 182-202 of …, UniProt P15018 23-201, limits assumed); test: as above
T5 construct: Secreted into the supernatant of transfected 293T cells; also called Mut3 protein
Procedure: as §3

human LIF protein [7] = target: T2, human LIF protein; test: ELISA, antigen coated 0.5 ug/ml, 293S supernatant heated 70 C 5 min, antibody 0.2 ug/mL
Procedure: as §2

human LIF protein [8] = target: T2, human LIF protein; test: BLI (Gator), antibody on anti-human Fc biosensor, human LIF in solution
Procedure: The affinity of anti-LIF antibody to human LIF protein was determined using Gator. The anti-human LIF antibody was first diluted to 5 ug/mL with PBS and then added to A-F wells in second column of the 96-well plate (200 μL per well). […] PBS was added to A-F wells in the first and third columns (200 μL per well). The 96-well plates were placed into the instrument and detected with anti-human Fc biosensor.

human LIF protein [9] = target: T2, human LIF protein; test: ELISA, antigen coated 0.5 ug/ml, 293S supernatant heated 70 C 5 min, antibody 0.04 ug/mL
Procedure: as §2

human LIF protein [10] = target: T2, human LIF protein; test: ELISA, antigen coated 0.5 ug/ml, 293S supernatant non-heated, antibody 0.2 ug/mL
Procedure: as §2

human LIF protein [11] = target: T2, human LIF protein; test: ELISA, antigen coated 0.5 ug/ml, 293S supernatant non-heated, antibody 1 ug/mL
Procedure: as §2

human LIF protein [12] = target: T2, human LIF protein; test: competition ELISA: human LIF coated at 1 µg/mL, LIFR-Fc 0.6125 µg/mL added together with the antibody, A450
Procedure: The recombinant human LIF protein was coated on the enzyme label plate at a concentration of 1 μg/mL, LIFR protein (expressed fusedly with human FC) at a concentration of 0.6125 μg/mL was added (50 μL/well), and the anti-human LIF antibodies 38E10E1C11, P36-033 and 38E10E1C11R which is recombinantly expressed by CHO cells (SEQ ID NOs: 41 and 43) at different concentrations simultaneously were added separately (50 μL/well) and incubated for 2 h at room temperature. After washed four times with PBST, incubated with HRP-labeled goat anti-mouse FC secondary antibody for 1 h at room temperature. Then the plates were washed four times with PBST and added with TMB coloured solution in for 10 minutes. The absorption value at 450 nm is quantitated using an enzyme-labelling measuring instrument, and the data was analyzed and plotted using Origin pro 9 software.

Chain of human IL-6 (P05231 30-212 limits assumed): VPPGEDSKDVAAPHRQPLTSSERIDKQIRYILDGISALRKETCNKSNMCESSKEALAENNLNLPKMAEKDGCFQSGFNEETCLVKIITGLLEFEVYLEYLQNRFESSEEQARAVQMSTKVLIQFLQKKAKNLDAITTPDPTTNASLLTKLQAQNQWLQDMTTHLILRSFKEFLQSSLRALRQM

- binding result (human IL-6): no binding (tested: 25 ug/ml)
- binding result (human CNTF): no binding (tested: 25 ug/ml)
- IC50 (human LIF protein [1]): 0.145 µg/mL
- binding result (human OSM): no binding (tested: 25 ug/ml)
- EC50, reversal of proliferation inhibition of M1 cells (CCK-8) (human LIF protein [2]): 8.93 µg/mL
B1: 38E HuH3L2-m (antibody, mouse IgG1, kappa)
heavy: EVMLVESGGGLVQPGGSLRLSCAASGFIFSSYAMSWVRQAPETRLEWVATISSGGSNTYSPDTVKGRFTISRDNSKNTLYLQMNSLRAEDTAMYYCARYYGYYFDFWGQGTLLTVSSAKTTPPSVYPLAPGSAAQTNSMVTLGCLVKGYFPEPVTVTWNSGSLSSGVHTFPAVLQSDLYTLSSSVTVPSSTWPSETVTCNVAHPASSTKVDKKIVPRDCGCKPCICTVPEVSSVFIFPPKPKDVLTITLTPKVTCVVVDISKDDPEVQFSWFVDDVEVHTAQTQPREEQFNSTFRSVSELPIMHQDWLNGKEFKCRVNSAAFPAPIEKTISKTKGRPKAPQVYTIPPPKEQMAKDKVSLTCMITDFFPEDITVEWQWNGQPAENYKNTQPIMDTDGSYFVYSKLNVQKSNWEAGNTFTCSVLHEGLHNHHTEKSLSHSPGK
light: DIHMTQSPSSLSASVGDRVTITCRASENIYSYLAWYQQKPGKSPKLLVYNAKTLAEGVPSRFSGSGSGTDFTLTISSLQPEDFATYYCQHHYVTPLTFGQGTKLEIKRADAAPTVSIFPPSSEQLTSGGASVVCFLNNFYPKDINVKWKIDGSERQNGVLNSWTDQDSKDSTYSMSSTLTLTKDEYERHNSYTCEATHKTSTSPIVKSFNRNEC
notes: Humanized variable regions of 38E HuH3L2 on mouse IgG1 / kappa constant regions

- binding result (human IL-6): no binding (tested: 25 ug/ml)
- binding result (human CNTF): no binding (tested: 25 ug/ml)
- IC50 (human LIF protein [1]): 0.103 µg/mL
- binding result (human OSM): no binding (tested: 25 ug/ml)
- EC50, reversal of proliferation inhibition of M1 cells (CCK-8) (human LIF protein [2]): 6.52 µg/mL
B2: 38E HuH3L4-m (antibody, mouse IgG1, kappa)
heavy: B1 heavy
light: B1 light with P40Q, K45Q, D70Q, T74K, S76N
notes: Humanized variable regions of 38E HuH3L4 on mouse IgG1 / kappa constant regions

- ELISA signal (human LIF protein [3]): 9450
- ELISA signal (human LIF protein [4]): 6600
- binding result [6]: binds
- ELISA signal (human LIF protein [7]): 8780
- Kd (human LIF protein [8]): 0.0538 nM
- koff (human LIF protein [8]): 3.39e-05 s⁻¹
- kon (human LIF protein [8]): 631000 M⁻¹ s⁻¹
- ELISA signal (human LIF protein [9]): 5060
- ELISA signal (human LIF protein [10]): 10600
- ELISA signal (human LIF protein [11]): 11300
B3: 38E HuH3L2 (antibody, human IgG1, kappa, N297A)
heavy: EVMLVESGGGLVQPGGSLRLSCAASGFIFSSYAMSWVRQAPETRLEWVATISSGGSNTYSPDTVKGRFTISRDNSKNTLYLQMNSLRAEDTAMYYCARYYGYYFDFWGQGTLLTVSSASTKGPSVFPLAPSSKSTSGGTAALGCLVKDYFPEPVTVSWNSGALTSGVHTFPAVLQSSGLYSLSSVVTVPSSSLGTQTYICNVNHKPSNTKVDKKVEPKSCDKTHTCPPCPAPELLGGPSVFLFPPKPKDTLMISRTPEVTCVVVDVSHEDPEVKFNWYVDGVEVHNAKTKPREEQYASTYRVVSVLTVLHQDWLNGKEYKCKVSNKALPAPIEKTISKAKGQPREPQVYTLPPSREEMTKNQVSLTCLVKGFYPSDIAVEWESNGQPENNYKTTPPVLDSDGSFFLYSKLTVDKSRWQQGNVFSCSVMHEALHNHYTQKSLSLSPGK
light: DIHMTQSPSSLSASVGDRVTITCRASENIYSYLAWYQQKPGKSPKLLVYNAKTLAEGVPSRFSGSGSGTDFTLTISSLQPEDFATYYCQHHYVTPLTFGQGTKLEIKRTVAAPSVFIFPPSDEQLKSGTASVVCLLNNFYPREAKVQWKVDNALQSGNSQESVTEQDSKDSTYSLSSTLTLSKADYEKHKVYACEVTHQGLSSPVTKSFNRGEC
notes: Humanized, human IgG1 / kappa
- binding result [5]: no binding (tested: primary antibody 1 µg/mL)

- ELISA signal (human LIF protein [3]): 9950
- ELISA signal (human LIF protein [4]): 7060
- binding result [6]: binds
- ELISA signal (human LIF protein [7]): 9060
- Kd (human LIF protein [8]): 0.0766 nM
- koff (human LIF protein [8]): 4.44e-05 s⁻¹
- kon (human LIF protein [8]): 579000 M⁻¹ s⁻¹
- ELISA signal (human LIF protein [9]): 5300
- ELISA signal (human LIF protein [10]): 11200
- IC50, P-STAT3 (TYR705) in KP4 cells, HTRF kit (human LIF protein [2]): 3.42 nM
- ELISA signal (human LIF protein [11]): 11900
B4: 38E HuH3L4 (antibody, human IgG1, kappa, N297A)
heavy: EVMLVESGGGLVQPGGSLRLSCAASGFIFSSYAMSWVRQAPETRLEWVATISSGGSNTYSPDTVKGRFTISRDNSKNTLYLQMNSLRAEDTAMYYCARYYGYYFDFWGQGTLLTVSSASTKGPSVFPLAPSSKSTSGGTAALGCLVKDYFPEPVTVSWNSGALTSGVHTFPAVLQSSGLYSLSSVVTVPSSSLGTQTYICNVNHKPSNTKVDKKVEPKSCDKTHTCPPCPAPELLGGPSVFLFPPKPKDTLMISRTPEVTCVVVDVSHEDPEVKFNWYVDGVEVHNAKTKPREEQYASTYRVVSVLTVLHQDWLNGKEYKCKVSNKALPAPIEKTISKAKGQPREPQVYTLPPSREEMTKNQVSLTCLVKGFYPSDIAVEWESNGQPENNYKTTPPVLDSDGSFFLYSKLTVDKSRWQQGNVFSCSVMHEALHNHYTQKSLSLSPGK
light: B3 light with P40Q, K45Q, D70Q, T74K, S76N
notes: Humanized, human IgG1 / kappa
- binding result [5]: no binding (tested: primary antibody 1 µg/mL)

- IC50 (read off the curve) (human LIF protein [12]): ~0.2 µg/mL
B5: 38E10E1C11R (38E10E1C11 antibody recombinantly expressed by CHO cells) (antibody, mouse IgG1, kappa)
heavy: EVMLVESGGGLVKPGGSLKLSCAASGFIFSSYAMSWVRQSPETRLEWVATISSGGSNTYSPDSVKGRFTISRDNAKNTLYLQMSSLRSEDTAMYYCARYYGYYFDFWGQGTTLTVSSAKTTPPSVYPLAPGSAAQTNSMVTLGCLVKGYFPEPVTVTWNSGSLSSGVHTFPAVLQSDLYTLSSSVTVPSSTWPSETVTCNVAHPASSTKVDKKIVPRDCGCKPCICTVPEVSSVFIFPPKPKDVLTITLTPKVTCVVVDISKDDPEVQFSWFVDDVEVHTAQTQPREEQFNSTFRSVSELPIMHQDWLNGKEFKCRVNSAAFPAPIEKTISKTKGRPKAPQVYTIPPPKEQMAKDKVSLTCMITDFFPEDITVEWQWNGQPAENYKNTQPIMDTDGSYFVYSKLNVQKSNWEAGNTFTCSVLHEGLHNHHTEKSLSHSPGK
light: DIHMTQSPASLSASVGETVTITCRASENIYSYLAWYQQKQGKSPQLLVYNAKTLAEGVPSRFSGSGSGTQFSLKINSLQPEDFGSYYCQHHYVTPLTFGAGTKLELKRADAAPTVSIFPPSSEQLTSGGASVVCFLNNFYPKDINVKWKIDGSERQNGVLNSWTDQDSKDSTYSMSSTLTLTKDEYERHNSYTCEATHKTSTSPIVKSFNRNEC
